The series addresses IMP1 KH34 Y396F (Gallus gallus) (UniProt O42254). Kind of series: BLI. Conditions: N6-methyladenosine at position 6; BLI: 10 mM Na2HPO4 pH 6.5, 50 mM NaCl, 1 mM TCEP, 2 mg/ml BSA, 0.005% Tween-20, 25 C; NMR: 80 uM protein, 37 C, NMR buffer not printed (protein in 10 mM …).

IMP1 KH34 Y396F (Gallus gallus), sequence (O42254 387-573 Y396F): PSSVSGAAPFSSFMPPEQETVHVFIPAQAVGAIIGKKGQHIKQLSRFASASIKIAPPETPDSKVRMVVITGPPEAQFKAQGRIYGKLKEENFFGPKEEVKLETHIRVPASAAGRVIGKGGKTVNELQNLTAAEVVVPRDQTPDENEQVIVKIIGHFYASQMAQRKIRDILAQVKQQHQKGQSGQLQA

As to ACTB zipcode RNA, m6A, the dissociation constant Kd stood at 3.7 nM.

The term Kd denotes the constant that tells how readily two partners part at equilibrium.
